Positions count from the first letter of the chain named.
Experiments:
Format in all cases: cell-based, Yarrowia
[1] = tested on: olivetolic acid; test: Linkers for GPS1.1-MPT4 fusions, in vivo assay (Example 6); conditions: 1 mM olivetolic acid, 72 h quench; for CBGA / FCBGA: 2% glycerol, strain sCL-SE-0128; for CBGA/FCBGA: product ratio
Description: As described in detail below, plasmids pCL-SE-0380 (MPT4), pCL-SE-0406, pCL-SE-0435, and pCL-SE-0437 were transformed into strain sCL-SE-0128. Four separate colonies per transformation were precultured for 24 h in YNB containing glycerol (2%), casamino acids (0.5%), and MES (100 mM pH 6.5). Pre-culture was used to inoculate assay medium comprised of YNB containing glycerol (2%), casamino acids (0.5%), MES (100 mM pH 6.5), and olivetolic acid (1 mM). Cultures were quenched after 72 h total growth by mixing with equal volume of EtOH. Enzymes produced CBGA and FCBGA. Averages and standard deviations were calculated from replicates.
However, sCL-SE-0128 expresses HMGR and GPS1.1 to increase intracellular GPP levels for prenylation of OA to CBGA. The plasmids that were transformed contain either a gene expressing a prenyl-transferase (pCL-SE-0380 (MPT4)) or a gene expressing a fusion between GPS1.1 and a prenyl-transferase with different linker sequences.
(§1) Overnight YPD (10 g/L yeast extract, 20 g/L peptone, 2% dextrose) cultures were inoculated from glycerol stocks of the appropriate strain and grown at 30° C. with 250 rpm shaking. Once cultures had reached an OD600 of 4-6, cultures were centrifuged at 500×g for 5 min, supernatants were discarded, and cell pellets were resuspended in equal volume of water. Resuspended cells were centrifuged at 500×g for 5 min, supernatants were discarded, and cells were resuspended in a volume (75 μL×OD×Vculture) of transformation cocktail (45% PEG-400, 0.1 M LiAc, 0.1 M DTT, and 25 ug/100 μL SS Salmon Sperm DNA). For each transformation, >1 μg of plasmid DNA was added to 55 μL cells/transformation cocktail and vortexed for 2 s. Transformations were incubated at 39° C. for 1 h with 250 rpm shaking. Transformations were resuspended in 750 μL YPD with 1 M sorbitol and recovered at 30° C. overnight with 250 rpm shaking. The next day, transformations were centrifuged at 500×g for 5 min, supernatants were discarded, and cell pellets were resuspended in 750 YPD. Resuspended transformations were plated on YPD with appropriate selection or YNBD (6.71 g/L yeast nitrogen base+nitrogen, 0.5% casamino acids, 2% dextrose) agar plates and grown at 30° C. for 2 days. Individual colonies were patched onto YPD plates with appropriate selection or YNBD plates and grown at 30° C. overnight. Patches were used to inoculate 0.5 mL YPD with appropriate selection or YNBD precultures in 96 w blocks and grown at 30° C. for 24-48 h with 1000 rpm shaking. For assays, 0.5 mL YPD with appropriate selection or YNBD cultures containing substrate were inoculated with 2 μL from precultures and grown at 30° C. for 2-4 days with 1000 rpm shaking with 2% glucose added every 24 h. Assay cultures were quenched by addition of 0.5 mL ethanol with 0.2% formic acid and 0.5 mg/mL pentyl-benzoic acid. Precipitates were pelleted by centrifuging at 4600×g for 10 min and then 200 μL was transferred to fresh plates, sealed, and analyzed via HPLC.
(§2) All samples were quenched with equal volume of EtOH containing 0.2 mg/mL internal standard (3,5-Diisopropyl-2-hydroxybenzoic acid CAS #2215-21-6) centrifuged, and clarified solutions were analyzed by HPLC-MS
(§3) • Column: 2.1×50 mm COSMOCORE PBr (Nacalai USA, Inc.) • Mobile Phase: A; 0.1% formic acid in water, B; 0.1% formic acid in acetonitrile • Flow: 0.45 mL/min • Temp: % 50 Celsius • Gradient: 20%B at 0 min, 70%B at 2.3 min, 89% B at 4.2 min, 20% B at 4.3 min, 20%B at 6 min

[2] = tested on: olivetolic acid; test: GPS-APT fusions, OA feed in vivo assay (Example 11)
Description: As described below, plasmids pCL-SE-0406, pCL-SE-0664, pCL-SE-0663, pCL-SE-0662, pCL-SE-0380 (MPT4), pCL-SE-0337.MPT21, pCL-SE-0337.MPT26, and pCL-SE-0337.MPT31 were transformed into strain sCL-SE-0128. Multiple colonies per transformation were precultured for 48 h in YNB containing glucose (2%), casamino acids (0.5%), and MES (100 mM pH 6.5). Pre-culture was used to inoculate assay medium comprised of YNB containing glucose (2%), casamino acids (0.5%), MES (100 mM pH 6.5), and olivetolic acid (2 mM). Cultures were quenched with equal volume of ethanol after 48 h total growth and assayed for CBGA and FCBGA. Averages and standard deviations were calculated from replicates.
Soluble prenyl transferase APT73.77 was fused with GPS1.1 at the N- or C-terminus with different linkers creating the plasmids shown in Table 14. These fusion proteins were expressed and screened as described in Example 8 (olivetolic acid feed)
as §1, §2, §3

[3] = tested on: olivetolic acid; test: GPS1.1 fusions of MPT21 mutants, OA feed (Example 8, Table 10); conditions: in words; mutagenesis of MPT21, tested as GPS1.1-F11 fusions
Description: as §1, §2, §3

[4] = olivetolic acid feed as in Example 8, 48 h quench, strain sCL-SE-0128

B1: GPS1.1-F5-MPT4: fusion protein, SEQ ID NO: 17 (protein)
chain: MSKAKFESVFPRISEELVQLLRDEGLPQDAVQWFSDSLQYNCVGGKLNRGLSVVDTYQLLTGKKELDDEEYYRLALLGWLIELLQAFWLVSDDIMDESKTRRGQPCWYLKPKVGMIAIWDAFMLESGIYILLKKHFRQEKYYIDLVELFHDISFKTELGQLVDLLTAPEDEVDLNRFSLDKHSFIVRYKTAYYSFYLPVVLAMYVAGITNPKDLQQAMDVLIPLGEYFQVQDDYLDNFGDPEFIGKIGTDIQDNKCSWLVNKALQKATPEQRQILEDNYGVKDKSKELVIKKLYDDMKIEQDYLDYEEEVVGDIKKKIEQVDESRGFKKEVLNAFLAKIYKRQKGGGGSGGGGSGGGGSMSDNSIATKILNFGHTCWKLQRPYVVKGMISIACGLFGRELFNNRHLFSWGLMWKAFFALVPILSFNFFAAIMNQIYDVDIDRINKPDLPLVSGEMSIETAWILSIIVALTGLIVTIKLKSAPLFVFIYIFGIFAGFAYSVPPIRWKQYPFTNFLITISSHVGLAFTSYSATTSALGLPFVWRPAFSFIIAFMTVMGMTIAFAKDISDIEGDAKYGVSTVATKLGARNMTFVVSGVLLLNYLVSISIGIIWPQVFKSNIMILSHAILAFCLIFQTRELALANYASAPSRQFFEFIWLLYYAEYFVYVFI
modifications: GPS1.1-F5-MPT4, geranyl diphosphate synthase, membrane-bound prenyltransferase fusion protein
For B1, the CBGA [1] was 333 ± 129 µM, the FCBGA [1] was 49 ± 15 µM and the CBGA/FCBGA [1] was 6.8.

B2: GPS1.1-F10-MPT4: fusion protein, SEQ ID NO: 19 (protein)
chain: MSKAKFESVFPRISEELVQLLRDEGLPQDAVQWFSDSLQYNCVGGKLNRGLSVVDTYQLLTGKKELDDEEYYRLALLGWLIELLQAFWLVSDDIMDESKTRRGQPCWYLKPKVGMIAIWDAFMLESGIYILLKKHFRQEKYYIDLVELFHDISFKTELGQLVDLLTAPEDEVDLNRFSLDKHSFIVRYKTAYYSFYLPVVLAMYVAGITNPKDLQQAMDVLIPLGEYFQVQDDYLDNFGDPEFIGKIGTDIQDNKCSWLVNKALQKATPEQRQILEDNYGVKDKSKELVIKKLYDDMKIEQDYLDYEEEVVGDIKKKIEQVDESRGFKKEVLNAFLAKIYKRQKGGAEAAAKEAAAKAAEAAAKEAAAKAAEAAAKEAAAKAAEAAAKEAAAKAGGMSDNSIATKILNFGHTCWKLQRPYVVKGMISIACGLFGRELFNNRHLFSWGLMWKAFFALVPILSFNFFAAIMNQIYDVDIDRINKPDLPLVSGEMSIETAWILSIIVALTGLIVTIKLKSAPLFVFIYIFGIFAGFAYSVPPIRWKQYPFTNFLITISSHVGLAFTSYSATTSALGLPFVWRPAFSFIIAFMTVMGMTIAFAKDISDIEGDAKYGVSTVATKLGARNMTFVVSGVLLLNYLVSISIGIIWPQVFKSNIMILSHAILAFCLIFQTRELALANYASAPSRQFFEFIWLLYYAEYFVYVFI
modifications: GPS1.1-F10-MPT4, geranyl diphosphate synthase, membrane-bound prenyltransferase fusion protein
B2 gave a CBGA [1] of 350 ± 17 µM, an FCBGA [1] of 54 ± 1 µM and a CBGA/FCBGA [1] of 6.5.

B3: APT73.77-F18-GPS1.1: fusion protein, SEQ ID NO: 66 (protein)
chain: MDEVYAAVEQTSRLLDVPCSPDRFEPVWKAFGDQLPDSHLVFSMAAGEAHRGELDFDFSLRPEGADPYTTALEHGFIEPTDHPVGSVLAEVGKRFAIASYGVEYGVVGGFKKSYAFFPLDDFPPLAQFAEVPSVPPCLAGHVETLTRLGFDDKVSIIGVNYRKNTLNVYLAASAVDTGDKLALLRAFGYPEPDARVRQFIERSFRLYPTFNWDSSAAERICFAVHTQQPGELPAPHDEPTEAFARQVPHVYEGGREFVSGVALAPSGASYYKLAALYQKARRCLDGGGGSLEDPAVWEAGKVVAKGVGTADITATTSNGLIASSEEADNAATSMSKAKFESVFPRISEELVQLLRDEGLPQDAVQWFSDSLQYNCVGGKLNRGLSVVDTYQLLTGKKELDDEEYYRLALLGWLIELLQAFWLVSDDIMDESKTRRGQPCWYLKPKVGMIAIWDAFMLESGIYILLKKHFRQEKYYIDLVELFHDISFKTELGQLVDLLTAPEDEVDLNRFSLDKHSFIVRYKTAYYSFYLPVVLAMYVAGITNPKDLQQAMDVLIPLGEYFQVQDDYLDNFGDPEFIGKIGTDIQDNKCSWLVNKALQKATPEQRQILEDNYGVKDKSKELVIKKLYDDMKIEQDYLDYEEEVVGDIKKKIEQVDESRGFKKEVLNAFLAKIYKRQK
modifications: APT73.77-F18-GPS1.1, mutant soluble aromatic prenyltransferase, geranyl diphosphate synthase fusion protein
Molecule B3 has a CBGA [2, 4] of 382 ± 26 µM, an FCBGA [2, 4] of 149 ± 4 µM and a CBGA/FCBG ([2]; olivetolic acid feed, 48 h quench, product ratio) of 2.6.

B4: MPT21.9 (protein)
chain: MSDNSIATKILNFGHTCWKLQRPYVVKGMISIACGLFGKELLHNTNLISWGLMWKAFFALVPILSFNFFASIMNQIYDVDIDRINKPDLPLVSGEMSIETAWILSIIVALTGLIVTIKLKSAPLFVFIYIFGIFAGFAYSVPPIRWKQNPSTNFLITISSHVGLAFTSYYASRAALGLPFELRPSFTFLLAFMTVMGMTIAFAKDISDIEGDAKYGVSTVATKLGARNMTFVVSGVLLLNYVAAILAGIIWPQAFNSNVMLLSHAILAFCLIFQTRELALANYASAPSRQFFEFIWLLYYAEYFVYVFI
modifications: MPT21.9 (recombinant membrane-bound prenyltransferase)
With B4 the “activity towards CBGA formation” value [3] was “improved activity towards CBGA formation”.

B5: MPT21.8 (protein)
chain: B4 chain with S71G
modifications: MPT21.8 (recombinant membrane-bound prenyltransferase)
With B5 the “ratio of CBGA/FCBGA” value [3] was “improved ratio of CBGA/FCBGA”.

B6: MPT21.2 (protein)
chain: B4 chain with Y24M, S71A
modifications: MPT21.2 (recombinant membrane-bound prenyltransferase)
With B6 the “ratio of CBGA/FCBGA” value [3] was “improved ratio of CBGA/FCBGA”.

B7: MPT21.10 (protein)
chain: B4 chain with S71A, I81M
modifications: MPT21.10 (recombinant membrane-bound prenyltransferase)
With B7 the “ratio of CBGA/FCBGA” value [3] was “improved ratio of CBGA/FCBGA”.

B8: MPT21.18 (protein)
chain: B4 chain with S71A, T275A
modifications: MPT21.18 (recombinant membrane-bound prenyltransferase)
In the case of B8, the “activity towards CBGA formation” value [3] is reported as “improved activity towards CBGA formation”.
